Test results: patent US20250263697

How the values were obtained:
[1] = molecular target: NSP12 (RNA-dependent RNA polymerase) (SARS-CoV-2) (UniProt P0DTD1)
[2] = tested on: NSP8 (primase) (SARS-CoV-2)
[3] = tested on: N (nucleocapsid) (SARS-CoV-2); details: eCLIP in infected Vero E6 cells

Substance | binding signal [1] | binding signal [2] | binding signal [3]
SARS-CoV-2 genome 7436-7526, positive strand | 13.7 fold |  | 
SARS-CoV-2 genome 5' end, positive strand | 573 fold | 107 fold | 
SARS-CoV-2 genome 9602-9620, positive strand |  |  | 9.5 fold
